This data set can be described thus: protein stability index of a GFP-peptide fusion (yeast GPS) (PSI 1-4); higher = more stable; sorted into four equal gates, so the index is relative within each strain. The essentials: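 Plasmids isolated from each sorting gate were PCR-amplified and Illumina-sequenced, and barcodes assigned the reads to strains. The gates, four of equal size, were set by GFP/Cherry fluorescence ratio on mid-log cultures in leucine-free medium. These cultures were yeast carrying a pooled library of tiled 17-residue yeast protein peptides fused downstream of GFP on a plasmid that also expresses Cherry. The protein stability index is the sum of every gate's read frequency times its gate number.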

± gives the uncertainty stated by the source.

Turning to RADTMDFKTDVDEPMTS [YJL039C/NUP192], the protein stability index by setting is: (doa10∆) 3.26 ± 0.087; (pdr5∆) 3.28 ± 0.089; (san1∆) 3.25 ± 0.11; (ubr1∆) 3.3 ± 0.066.
For SAAAAGNRNSSSVFLPS [BRR2], in that order: 3.13 ± 0.062, 3.17 ± 0.063, 3.13 ± 0.046 and 3.15 ± 0.059.
For CIFNFLQQQTPVTIWLF [SME1], in that order: 1.18 ± 0.069, 1.47 ± 0.066, 1.25 ± 0.084 and 1.15 ± 0.052.
For DIILGQNIKAPSVKRQK [PRP8], in that order: 2.44 ± 0.081, 2.35 ± 0.078, 1.53 ± 0.16 and 2.51 ± 0.072.
Take TTAVEDEDDDLDEDDVN [RPB4]: the protein stability index came to 3.5 ± 0.11 (doa10∆), 3.27 ± 0.1 (pdr5∆), 3.55 ± 0.15 (san1∆) and 3.3 ± 0.093 (ubr1∆).
For NLSEARLVIKEALVERR [RPB4], in that order: 3.33 ± 0.28, 2.75 ± 0.13, 2.83 ± 0.21 and 3.3 ± 0.13.
On the same counts, the results for QVIVDIFSVHGNTVVDG [YCG1] are 2.08 ± 0.11, 2.12 ± 0.068, 1.4 ± 0.2 and 2.34 ± 0.035.
For TQTGQNTGPSTGGLFGA [YGL172W/NUP49], in that order: 3.47 ± 0.11, 3.34 ± 0.094, 2.93 ± 0.14 and 3.52 ± 0.13.
In the case of YGYFSVGKRVPIVEDRR [SIR4], the protein stability index (doa10∆) is 3.12 ± 0.12, the protein stability index (pdr5∆) stood at 2.28 ± 0.1, the protein stability index (san1∆) stood at 2.16 ± 0.13 and the protein stability index (ubr1∆) was found to be 2.75 ± 0.26.
Regarding RFPETMDETQTRAKIGG [RPO21], the protein stability index runs as follows: (doa10∆) 3.17 ± 0.26; (san1∆) 2.69 ± 0.24; (ubr1∆) 3.42 ± 0.13.
Take TLKDYQIKGLQWMVSLF [SNF2]: the protein stability index stood at 3.01 ± 0.1 (doa10∆), 2.54 ± 0.11 (pdr5∆), 3.22 ± 0.078 (san1∆) and 2.76 ± 0.1 (ubr1∆).
Regarding DNGESAFRTLRLARSEK [RPL13A], the protein stability index (doa10∆) came out at 3.39 ± 0.24, the protein stability index (pdr5∆) turned out to be 3.51 ± 0.15 and the protein stability index (ubr1∆) amounted to 3.31 ± 0.084.
As to MGKGTPSFGKRHNKSHT [RPL37A], the protein stability index turned out to be 3.24 ± 0.089 (doa10∆), 3.4 ± 0.067 (pdr5∆), 3.1 ± 0.077 (san1∆) and 3.02 ± 0.069 (ubr1∆).
On the same counts, the results for KKQNLSSHQRVFKLSTN [SWP82] are 1.94 ± 0.052, 2.08 ± 0.052, 2.05 ± 0.068 and 2.06 ± 0.043.
On the same counts, the results for LNATKISPSAPSKDSFT [YAR002W/NUP60] are 2.8 ± 0.068, 3 ± 0.068, 2.94 ± 0.052 and 3 ± 0.043.
For LESTIAETQGSKVVIDS [IRR1], in that order: 2.9 ± 0.1, 3.03 ± 0.14, 3.06 ± 0.12 and 2.98 ± 0.12.
On to TSLSSKDLSNYRKTEGI [YMR153W/NUP53], for which the protein stability index worked out at 3.12 ± 0.088 (doa10∆), 3.25 ± 0.085 (pdr5∆), 3.24 ± 0.062 (san1∆) and 3.35 ± 0.043 (ubr1∆).
As for HCIDYLRKNKLGYARFI [SMC4], the protein stability index by setting is: (doa10∆) 1.19 ± 0.036; (pdr5∆) 1.21 ± 0.039; (san1∆) 1.14 ± 0.091; (ubr1∆) 1.14 ± 0.04.
On the same counts, the results for PKDFSPNFTGIDKLMLS [SSN2] are 1.42 ± 0.17, 1.38 ± 0.15, 1.85 ± 0.27 and 1.26 ± 0.11.
Consider ATFLKLAAPQLVQMYIG [RPT5], for which the protein stability index (doa10∆) was found to be 1.31 ± 0.25, the protein stability index (san1∆) was 1.2 ± 0.21 and the protein stability index (ubr1∆) was determined as 1.44 ± 0.23.
Consider YKEQIIQGFYWAVKEGP [SNU114], for which the protein stability index reads like this: (doa10∆) 2.75 ± 0.088; (pdr5∆) 2.38 ± 0.064; (san1∆) 2.23 ± 0.09; (ubr1∆) 2.38 ± 0.08.
On the same counts, the results for KHFIQGGSFGNREEFIN [RPL7A] are 1.61 ± 0.21, 1.86 ± 0.14, 1.21 ± 0.23 and 1.56 ± 0.04.
On to QIKTLPEQYSDILLNER [AAR2], for which the protein stability index reads like this: (doa10∆) 2.96 ± 0.077; (pdr5∆) 3.24 ± 0.06; (san1∆) 3.14 ± 0.077; (ubr1∆) 2.95 ± 0.072.
For RGYFITQEEVELPLEDF [RPB5], in that order: 3.46 ± 0.19, 3.01 ± 0.16, 3.28 ± 0.15 and 3.14 ± 0.086.
On the same counts, the results for KRITQITIEPGVDVEVV [RPS20] are 2.7 ± 0.089, 1.78 ± 0.17, 2.81 ± 0.15 and 2.6 ± 0.09.
On the same counts, the results for ASNGRNKKGRGHVKPVR [RPS26A] are 3.46 ± 0.075, 3.35 ± 0.086, 3.45 ± 0.082 and 3.3 ± 0.056.
ENLADLDYQIGNSESKV [LIN1]: the protein stability index is, setting by setting: (doa10∆) 3.23 ± 0.099; (pdr5∆) 3.42 ± 0.11; (san1∆) 3.06 ± 0.12; (ubr1∆) 3.42 ± 0.1.
On the same counts, the results for MAHRVKVIPYSTFRLNL [RPO21] are 1.87 ± 0.07, 1.82 ± 0.071, 1.2 ± 0.12 and 2.29 ± 0.095.
For FKAIHGSQLRLSEWEEY [YCS4], in that order: 1.27 ± 0.058, 1.58 ± 0.05, 2 ± 0.12 and 1.29 ± 0.029.
On the same counts, the results for TRLPAFERPAVKEEKED [RPC53] are 2.87 ± 0.25, 2.71 ± 0.23, 3.21 ± 0.085 and 3.46 ± 0.16.
For the sequence GNENFEDFDVEHFSDEE [RPO26], the protein stability index is, setting by setting: (doa10∆) 3.05 ± 0.088; (pdr5∆) 3.1 ± 0.088; (san1∆) 2.95 ± 0.085; (ubr1∆) 3.17 ± 0.082.
For EGNQIIVFVHSRKETSR [BRR2], in that order: 2.01 ± 0.055, 2.28 ± 0.054, 1.8 ± 0.072 and 2.48 ± 0.05.
On the same counts, the results for AIQLDYSTANEYIIAAI [RPN3] are 2.24 ± 0.058, 2.09 ± 0.073, 2.32 ± 0.094 and 2.47 ± 0.056.
For LEDYVPHQSPDATRVFV [RPB2], in that order: 2.82 ± 0.055, 2.87 ± 0.055, 2.97 ± 0.04 and 3.07 ± 0.04.
Consider EVQRILIELLTQMDGFD [RPT3], for which the protein stability index was 1.36 ± 0.054 (doa10∆), 2.08 ± 0.081 (pdr5∆), 1.41 ± 0.16 (san1∆) and 1.81 ± 0.069 (ubr1∆).
For RLIDLSGCENITDKTIE [GRR1], the protein stability index is, setting by setting: (doa10∆) 3.05 ± 0.068; (pdr5∆) 3.21 ± 0.093; (san1∆) 2.85 ± 0.079; (ubr1∆) 2.88 ± 0.093.
LKLGLVEYLDVNEENDS [RET1]: the protein stability index worked out at 3.11 ± 0.075 (doa10∆), 3.08 ± 0.086 (pdr5∆), 3.16 ± 0.071 (san1∆) and 3.1 ± 0.075 (ubr1∆).
On the same counts, the results for NDDALDLDLDLFDPDDF [MED4] are 2.88 ± 0.045, 3.04 ± 0.068, 2.81 ± 0.036 and 3.07 ± 0.032.

The values above are taken from the supplement of paper PMC9732359.
